Measured values published in patent publication US10792367B2, “Conjugates comprising an GLP-1/glucagon dual agonist, a linker and hyaluronic acid” (SANOFI, dated 2020).
Starred links: 1 amine or outer side, 2 acyl side, 3 side chain; linkers in the order of their positions; H or OH if unused. Non-standard residues stand in square brackets, D forms with d. Groups on a side chain read outwards from the residue. No end group written: not given here. *: point of attachment. γGlu = O=C(O)[C@H](CCC(=O)[*:2])N[*:1]; Stearoyl = CCCCCCCCCCCCCCCCCC(=O)*

Target: human GLP-1 receptor (human, UniProt P43220)
Test: cell-based or functional assay

B1: peptide of SEQ ID NO: 6 (GLP-1/Glucagon agonist, exendin-4 derivative) (peptide)
peptide: H[dS]QGTFTSDLSKQK([γGlu-Stearoyl])DEQLAKDFIEWLKAGGPSSGAPPPS-NH2
  EC50 hGLP-1R (cAMP response, HTRF): 5.1 pM
